Where two headings read alike, the source gives them in different places.
Key:
[1] = target: 26S proteasome (mouse (endogenous in striatum and hippocampus tissue)) (UniProt P62196); assay: co-IP
[2] = target: 26S proteasome (mouse (endogenous in striatum and hippocampus tissue)) (UniProt P62196); assay: co-IP; remark: listed apart in the source

UniProt P62196, sequence (P62196 whole entry, looked up): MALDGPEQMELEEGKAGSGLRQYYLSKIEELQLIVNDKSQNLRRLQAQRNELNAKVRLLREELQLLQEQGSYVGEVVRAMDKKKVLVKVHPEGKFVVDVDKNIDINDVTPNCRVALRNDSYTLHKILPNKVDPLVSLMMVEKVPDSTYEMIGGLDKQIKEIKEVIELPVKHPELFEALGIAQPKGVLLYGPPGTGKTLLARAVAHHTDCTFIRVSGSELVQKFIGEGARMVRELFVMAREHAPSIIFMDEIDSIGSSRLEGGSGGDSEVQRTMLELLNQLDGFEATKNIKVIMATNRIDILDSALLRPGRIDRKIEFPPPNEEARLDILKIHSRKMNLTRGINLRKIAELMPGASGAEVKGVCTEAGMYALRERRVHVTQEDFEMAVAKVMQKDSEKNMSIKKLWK

- pixel total of the Eno2 band [1]: 12400 pixels
- pixel total of the Eno2 band [2]: 9430 pixels
Substance: gamma-enolase (ENO2) (from UniProt P17183 1-434) (natural protein)

Source: article PMC8617079
